Measured values published in PMC6226536.

Biological target: SlOFP20 (full length, expressed in N. benthamiana leaf cells) (tomato)

- cells in which SlTRM5 stayed on the microtubules on co-expression with SlOFP20 in N. benthamiana leaf epidermal cells (% of the cells): 71
Substance: SlTRM5 (full length, expressed in N. benthamiana leaf cells) (natural protein)
